Patent US12697350B2, “Methods and compositions for treating a premature termination codon-mediated disorder” (Tevard Biosciences, Inc., priority 2019, dated 2026)
“Also recorded” adds a separate entry of the source.

Tested on: mouse SCN1A with an Arg(R)-to-TGA PTC (R1407X) and 3×FLAG tag
Test: Rescue of full-length SCN1A protein expression, anti-FLAG Western blot, Flp-In-293 cells (FIGS. 37-39)
Format: cell-based, human
Text: FIG. 37A is a Western blot depicting rescue of full-length SCN1A protein expression by a suppressor tRNA. Flp-In-293 cells were transfected with an expression construct containing mouse SCN1A with an Arg(R)-to-TGA PTC (R1407X) and a 3×FLAG tag peptide (DYKDHD-G-DYKDHD-I-DYKDDDDK) at the C-terminus (SEQ ID NO: 899) (“SCN1a (R1407*)”) and either (i) co-transfected with an expression construct containing the ArgTCA suppressor tRNA #115 (SEQ ID NO: 18) (“Arg>TGA #115”), or (ii) treated with ataluren at the indicated concentration, (iii) treated with gentamicin at the indication concentration, or (iv) treated with G418 at the indicated concentration. “SCN1a (w.t.)” indicates cells transfected with an expression construct containing wild-type mouse SCN1A and a 3×FLAG tag peptide at the C-terminus (SEQ ID NO: 898). Protein was isolated at 24 hours post transfection and SCN1A was detected using a monoclonal anti-FLAG M2 antibody. Molecular weights based on protein molecular weight markers are indicated to the left of the gel. The intensity of bands corresponding to the size of full-length SCN1A protein was measured using ImageJ and all intensity values were normalized to wild-type SCN1A protein (“SCN1a (w.t.)” lane). Cells co-transfected with expression vectors containing mutant SCN1A and the ArgTCA suppressor tRNA expressed greater than 70% of the full-length SCN1A expressed by cells transfected with an expression construct containing wild-type SCN1A.
FIG. 38A is a Western blot depicting rescue of full-length SCN1A protein expression by suppressor tRNAs. Flp-In-293 cells were co-transfected with (i) an expression construct containing mouse SCN1A with an Arginine-to-TGA PTC (R1407X) and a 3×FLAG tag peptide (DYKDHD-G-DYKDHD-I-DYKDDDDK) at the C-terminus (SEQ ID NO: 899) (“SCN1a (R1407*)”) and (ii) either the #104 ArgTCA suppressor tRNA (SEQ ID NO: 6) (“Sup #104”), the #106 ArgTCA suppressor tRNA (SEQ ID NO: 8) (“Sup #106”), or the ArgTCA suppressor tRNA #115 (SEQ ID NO: 18) (“Sup #115”). “SCN1a (w.t.)” indicates cells transfected with an expression construct containing wild-type mouse SCN1A and a 3×FLAG tag peptide at the C-terminus (SEQ ID NO: 898). Protein was isolated at 24 hours post transfection and SCN1A was detected using a monoclonal anti-FLAG M2 antibody. Molecular weights based on protein molecular weight markers are indicated to the left of the gel. The intensity of bands corresponding to the size of full-length SCN1A protein was measured using ImageJ and all intensity values were normalized to wild-type SCN1A protein (“SCN1a (w.t.)” lane). Cells co-transfected with expression vectors containing mutant SCN1A and the ArgTCA suppressor tRNA expressed greater than 30% (Sup #104), greater than 60% (Sup #106), or greater than 70% (Sup #115) of the full-length SCN1A expressed by cells transfected with an expression construct containing wild-type SCN1A.
FIG. 39A is a Western blot depicting rescue of full-length SCN1A protein expression by a suppressor tRNA. Flp-In-293 cells were cultured in 6-well cell culture plates and co-transfected with (i) an expression construct containing mouse SCN1A with an Arginine-to-TGA PTC (R1407X) and a 3×FLAG tag peptide (DYKDHD-G-DYKDHD-I-DYKDDDDK) at the C-terminus (SEQ ID NO: 899) (“SCN1a (R1407*)”) and (ii) the ArgTCA suppressor tRNA #115 (SEQ ID NO: 18) (“Arg>TGA #115”) at the indicated concentrations. 1× indicates 400 ng of the ArgTCA suppressor tRNA construct per well, 0.3× indicates 133 ng of the ArgTCA suppressor tRNA construct per well, 0.1× indicates 40 ng of the ArgTCA suppressor tRNA construct per well, and 0.03× indicates 13 ng of the ArgTCA suppressor tRNA construct per well. “SCN1a (w.t.)” indicates cells transfected with an expression construct containing wild-type mouse SCN1A and a 3×FLAG tag peptide at the C-terminus (SEQ ID NO: 898). Protein was isolated at 24 hours post transfection and SCN1A was detected using a monoclonal anti-FLAG M2 antibody. […]

B1: tRNA-Arg-TCT-2-1-TCA-SUP_no intron (nucleic acid)
chain: GGCTCCGTGGCGCAATGGATAGCGCATTGGACTTCAAATTCAAAGGTTCCGGGTTCGAGTCCCGGCGGAGTCG
modifications: chemistry not fully specified
rescue of full-length SCN1A protein expression over dose range (13 to 400 ng suppressor tRNA construct per well, 6-well plate (FIG. 39)): able to rescue full-length SCN1A protein expression over a broad dose range | full-length SCN1A expressed, relative to cells transfected with wild-type SCN1A construct (Flp-In-293, 24 hours post transfection, Western blot band intensity (ImageJ) normalized to wild-type SCN1A): greater than 70% | rescue of full-length SCN1A protein expression (Flp-In-293, SCN1A R1407X-3×FLAG, Western blot, 24 hours post transfection): able to rescue full-length SCN1A protein expression; also recorded: rescued full-length SCN1A protein expression
